Assay results reported in the NTF2 design screens of Basanta et al. (2020).

assay: protease stability score; higher = more stable; yeast display proteolysis, trypsin and chymotrypsin;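 further: log10 excess protease needed over predicted unfolded state with 0 meaning unfolded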

Row | Sequence | protease stability score
1 | DEENRQLAENFLTAMEDNNPEHLSELADPNAKFHYGNKRIHGREKFMHEVEHRNKRIRYSIKSYKITVSGDKIEIDLTFTFRHNGQPDERRRTIHMQMENGQIRSVEYNDNK | 0.337
2 | EEEKMKKIIKRMFDAVQKGNTEELRKYGKEDVKFEFIDDRNEGPQQYAERMKKMMKHGVQLEIKEVQLKDNTATMYTVVEYGNRRVTAKAEFEYDGGKLKEARVKISEEAKKVIKTG | 0.119
3 | DDRHLHHRAREWAEQLKTNDEDELTKYVDPNARMRVGDKSVHGREKLQEQIHRDNERVDNVEIRSIRIENGTVNIRQVNDVNGRNDDFRVRMHIHNGQLKVNERHSP | -0.38
4 | DEDENNKILESINTNDSKHNKDLLDKDVTIRYGDKQVQGREEALEFLDTWNKRVDHFRVHHMTVKGDKLRMRFEIVFNGVTVEVSLSAKVENGRMKHFHLDARDEKVRHRLKRMFG | 0.108
5 | DERNREIVEEYFKAIKQGDEDRYKQMVDPNVHVEVGDRNYHGREHQARWMHRLRKHMRLVFNIRSIDVSGDKVKVKLDYEEEHNGEPRTNKMTVEFKFHNGKILKIKIQTRQ | 2.08
6 | DEEEAKKVLDKAVKAVKNGDLKHLKDLGKDGVEYRIADKKAHGPEQIEKVMEYLHRKGVRIEFKRQEVKGNTVTTDIEYQQGDETYTVQAHATVKGGRIDKVEIDVSERAKKVMDHG | 0.149
7 | DEEDQKNFAEQANRALHHGDPRQMATLADKDAEVTVGDREYKGRRDINEAMKDWSDQVDSIEVKSVTVQGNNIVVHFVFVHNGHEHKVVMRITMEGDKATSIHLDEK | 0.336
8 | DHTELETLARRMVDAMRTGDPDKLAELADPNVKVTYGDKSVHGHEQFTKQMKEFVDQYDHVRVERLKIEGDKVHADLNAEHNGRSSRFIMLITVKNGRVKHLKFKNR | 0.472
9 | DENTEAQRFADNFNKLMNTGDEDTLNKLFDENAKVEVGDHRLHGREKLTKLAETNKQRFDHVKVDVDDIKVDNGTVQMRAVVIVYHNGRHHSVELEVVAQNHNGHARVKRMRVG | 0.553
10 | DHEDRAKDMLRRYEEALKSGNPDEARKLADEDVNFNIGDKRYRGRDDLATLVKQIRDSADHISITLETFTVQGNTITMDVSVVVDVNGKHISRRYNIIAQVDNGTLKLKSVQEH | -0.015
11 | DEEDLRTRASEFNKVLENNDPDRLNKLADKDATANYGDHEYHGREDIHHMAETMVRQVDRIEIKHVQARNGRVKVDLIMRVNGKEVKVDVTMEFHNGHLKLVTFDPDQVRKVEG | 0.673
12 | ETEELHKMTELIDNMQRGNPQKFNEMVDPNAQFEVGDKTIRGREELSKELHRKRREMRRSLRSVKVRLSGNHFDIRVTFRETHNGQPDDRRQRIVIIVSNGRIKSVRVDEDG | 0
13 | DEDQVRQANDNVIKAMKNGDPRKFKELFDPNARANYGDKEIHGMHTAMQRLVELLQQVDHIRIKDIKVENGHVHVDLVLEVNGRSVRFTITFRQSNGKVEELRMDPEDQKTLRR | -0.186
14 | DDEMIRVYREMQKALQDNDPERAKELMDPNAKLRYGDKVFHGREEFAKDMERRHHESRVQIRHLKVEDQGEKAVARFNEVNNSNGRPNSKSVSVELEAHNGKLVHVRAQDTK | -0.172
15 | DDDDQLRSMIKSYNDNFQRGDFVRLLKMAPPDVKIRIGEDEISGREKANEFATRLEEEVDQVEAEIKSVTAHNGKASADILVEVNHNGETKHFTIEVHFDLQNGEVHLTEVVYK | 0.79
16 | DEKEIQKLLEQLMKMFVNGNDEQIKKLGKDDVEATYMDEKVTGPDKVVELVKKYMDLGVKVEYKEEHVEGDKATAKVEADAGGQTVRFHVHYKATGRKMDRVEVQYDETAKKVIKHG | -0.131
17 | DREKQSEISTMMQKGDPQHLVDLADENAHVEIGNKRVHGRNQIKEYADRFHERVDHYSVRSIEIEGDTVTVTAYFVVNGQNIEWTMQMQNHNGKVKRIRVRFTNEELEKQLDKALS | 0.846
18 | DEDDKQEFAKSYNEVWKTGNEENAKRLFDENARMRVGDKEFHGHESIAHFLAEQVKRIDHIEFKQVDVQGEDMVFVFHFTVDGRKVHMTVKLRIHNGRIKDATINPQDIKKMEK | 0.603
19 | DEERVKQVQKKAFEAVMKGNDDEMRKIGKPNVRYEYIDEKNEGQEAVDVVIQLVKKVGAEAKVRRTEVKGDTVRAIFVYNDGDQTVQTKVEVKYEGDKVKEARVELTDEVQKVLHKG | -0.027
20 | DHEARKVVKRFWEAWETGDPEELNKQVDPNVHVQIGDTRLKGRDDVVRHLLEERHEMRVDLDSMDVKATNGQVNARATARADVNGQPVTFSMEFRFKVRNGKITHIDWQFSDEDHRKRKG | 0.81
21 | DEKDETVVRKWLEAQHTGNPEEAKHQVDKNVDIRVGDHKVTGRHQIMHNLEQRKKSARFELQLTHLSASNGKVTIQIDVRINYNGRPFTDTLHATAKIKNGQLHSFSVDVDEEYLKKVKS | -0.272
22 | EKEEVKKAVEAFNENDEDELRDLVDENVKVVIGEKDYTGRETYWQFLRRMHEQIDHMHVKSVSVSNGVLRMDVEVVFNGRNVRFTIEVQAHDGQIKRVHYQARSEEQHKEFLKMLK | 1.58
23 | DEEANEMAKSYLEAKTRGDPRSAKELADKDAEFVVGDKTYQGMDENSDNMRRERDEQRTKVKILHLDDRPNHAVIKYRVEVQTNGQPRTKNYELNLQYSNGKIKYVRVEDRK | -0.027
24 | DEKDHARHLVKRLLHAIRTGNPDEAMRLAPPNVRVSYGDTQIHGREQFHKWVKTIRDTVDRQRFTIVNVTVHNGQANVSIRYRLNHNGKDDKNEMTARFVEHNGQLKLVSMSRS | 0.522
25 | DEENVKQVERQFKQRDEGNEERVVDQADENASINIGDKRYHGMTDAAKKLVTRLKEIRFERRVVSVTMHNGKFDANYEQTQNTNGNPRTFRYKLVIHMKNGRVKSAHIQEDG | 0.062
